Experimental data: US20230302104A1, “TREATMENT AND/OR PREVENTION OF A DISEASE OR A SYNDROME RELATED TO A VIRUS INFECTION” (priority 2020, published 2023)

Experiments:
furin [1] = target: T1, furin (Homo sapiens, UniProt P09958); settings: Jean et al. 1998; cited from earlier work
T1 construct: purchased NEB

[2] = system: SARS-CoV-2 spike pseudotyped lentivirus entry in HeLa cells expressing ACE2 only; type: cell-based; settings: 10 µM
[3] = system: IFNγ-mediated activation of human microglial HMC3-MHCII^Luc cells; experiment: IFNγ-mediated microglial activation, MHCII-driven luciferase; type: cell-based; settings: MHCII-driven luciferase normalized to cell viability, FIG. 19
[4] = system: ACE2/SARS-CoV-2 spike mediated cell fusion of HeLa cells; type: cell-based, human; settings: 24 h
cathepsin B = target: T2, cathepsin B (Homo sapiens, UniProt P07858); type: biochemical; settings: 45 min
T2 construct: purchased R&D Systems

cathepsin L = target: T3, cathepsin L (Homo sapiens, UniProt P07711); type: biochemical; settings: 45 min
T3 construct: purchased R&D Systems
T3 sequence (P07711 114-333): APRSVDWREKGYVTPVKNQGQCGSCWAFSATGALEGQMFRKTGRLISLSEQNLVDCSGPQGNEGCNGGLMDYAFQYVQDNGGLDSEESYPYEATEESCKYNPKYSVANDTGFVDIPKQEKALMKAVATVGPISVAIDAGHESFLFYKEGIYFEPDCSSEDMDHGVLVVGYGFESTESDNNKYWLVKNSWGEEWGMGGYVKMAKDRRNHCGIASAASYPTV

trypsin = type: biochemical; settings: 45 min
furin [5] = target: T1, furin; type: biochemical; settings: 45 min
PC1 = target: T4, PC1 (Homo sapiens, UniProt P29120); type: biochemical; settings: 45 min
T4 construct: purchased R&D Systems
T4 sequence (P29120 111-753): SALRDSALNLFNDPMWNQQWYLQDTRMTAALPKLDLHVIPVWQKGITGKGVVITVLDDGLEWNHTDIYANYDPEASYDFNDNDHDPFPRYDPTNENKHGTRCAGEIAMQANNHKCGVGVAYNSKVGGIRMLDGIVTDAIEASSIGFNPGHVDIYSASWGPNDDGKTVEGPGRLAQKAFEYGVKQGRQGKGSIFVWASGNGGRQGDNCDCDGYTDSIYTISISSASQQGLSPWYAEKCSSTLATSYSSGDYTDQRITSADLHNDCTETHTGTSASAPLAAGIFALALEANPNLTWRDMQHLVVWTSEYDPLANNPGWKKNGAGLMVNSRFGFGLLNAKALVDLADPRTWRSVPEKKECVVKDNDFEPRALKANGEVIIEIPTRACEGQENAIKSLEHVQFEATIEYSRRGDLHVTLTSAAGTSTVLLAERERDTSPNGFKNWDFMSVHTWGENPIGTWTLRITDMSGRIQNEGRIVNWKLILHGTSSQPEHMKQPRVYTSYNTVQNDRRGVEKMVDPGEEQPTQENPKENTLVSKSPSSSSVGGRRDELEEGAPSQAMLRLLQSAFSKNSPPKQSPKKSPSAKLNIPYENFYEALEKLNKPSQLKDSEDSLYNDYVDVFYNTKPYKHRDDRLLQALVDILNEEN

matriptase = target: T5, matriptase (Homo sapiens, UniProt Q9Y5Y6); type: biochemical; settings: 45 min
T5 construct: purchased R&D Systems
T5 sequence (Q9Y5Y6 1-855): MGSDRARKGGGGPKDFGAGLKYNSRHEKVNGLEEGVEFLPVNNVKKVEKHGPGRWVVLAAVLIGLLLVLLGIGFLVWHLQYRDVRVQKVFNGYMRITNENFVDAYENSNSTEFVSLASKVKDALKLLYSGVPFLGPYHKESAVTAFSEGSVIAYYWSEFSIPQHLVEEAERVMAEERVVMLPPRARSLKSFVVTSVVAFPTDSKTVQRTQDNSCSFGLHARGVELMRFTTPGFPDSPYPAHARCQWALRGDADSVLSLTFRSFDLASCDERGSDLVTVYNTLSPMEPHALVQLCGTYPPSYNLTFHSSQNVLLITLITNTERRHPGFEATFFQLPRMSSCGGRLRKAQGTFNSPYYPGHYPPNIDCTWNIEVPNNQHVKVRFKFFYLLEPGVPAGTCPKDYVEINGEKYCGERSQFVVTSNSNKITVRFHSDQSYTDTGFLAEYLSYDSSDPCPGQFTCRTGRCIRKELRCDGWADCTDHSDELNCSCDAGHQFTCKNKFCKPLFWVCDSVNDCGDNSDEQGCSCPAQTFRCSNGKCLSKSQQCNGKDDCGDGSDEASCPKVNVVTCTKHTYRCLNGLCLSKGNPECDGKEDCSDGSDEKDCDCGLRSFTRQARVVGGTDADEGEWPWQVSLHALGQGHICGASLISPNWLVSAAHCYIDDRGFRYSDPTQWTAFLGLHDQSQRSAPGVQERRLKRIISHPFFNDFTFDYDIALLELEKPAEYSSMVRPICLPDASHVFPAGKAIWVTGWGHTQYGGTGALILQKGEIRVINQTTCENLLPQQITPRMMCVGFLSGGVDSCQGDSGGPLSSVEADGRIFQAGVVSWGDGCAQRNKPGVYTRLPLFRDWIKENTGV

TMPRSS2 = target: T6, TMPRSS2 (Homo sapiens, UniProt O15393); type: biochemical; settings: 45 min
T6 construct: purchased creative biomart
T6 sequence (O15393 whole entry): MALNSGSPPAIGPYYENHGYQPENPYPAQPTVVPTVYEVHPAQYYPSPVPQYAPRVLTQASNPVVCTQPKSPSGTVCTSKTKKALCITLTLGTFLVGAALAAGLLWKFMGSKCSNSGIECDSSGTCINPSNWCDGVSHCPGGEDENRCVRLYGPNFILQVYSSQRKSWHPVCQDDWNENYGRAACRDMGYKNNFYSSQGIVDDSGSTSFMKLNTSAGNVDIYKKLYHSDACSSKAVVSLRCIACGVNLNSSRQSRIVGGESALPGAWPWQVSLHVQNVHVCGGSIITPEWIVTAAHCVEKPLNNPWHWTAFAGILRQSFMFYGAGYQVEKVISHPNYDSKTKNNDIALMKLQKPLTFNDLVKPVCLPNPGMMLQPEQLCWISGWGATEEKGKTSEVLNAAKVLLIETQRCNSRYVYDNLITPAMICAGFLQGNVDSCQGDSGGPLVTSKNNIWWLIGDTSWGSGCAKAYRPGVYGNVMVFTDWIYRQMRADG

[6] = target: T7, elastase (ELA1) from pig pancreas (Sus scrofa, UniProt P00772); type: biochemical
T7 construct: elastase (ELA1) from pig pancreas 0.25U/mL; purchased molecular probes (Sigma-Aldrich) E-12056; host or cells: pig pancreas
T7 sequence (P00772 27-266): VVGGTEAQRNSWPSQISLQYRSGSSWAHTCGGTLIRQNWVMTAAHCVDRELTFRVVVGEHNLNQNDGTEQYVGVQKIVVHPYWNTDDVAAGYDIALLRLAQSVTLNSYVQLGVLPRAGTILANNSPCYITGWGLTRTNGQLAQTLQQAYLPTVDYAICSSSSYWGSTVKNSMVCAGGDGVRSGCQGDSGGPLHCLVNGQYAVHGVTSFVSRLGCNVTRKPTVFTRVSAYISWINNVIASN

[7] = system: MERS-CoV pseudovirus entry in Caco2 human colorectal adenocarcinoma cells; type: cell-based

T1 sequence (P09958 108-794): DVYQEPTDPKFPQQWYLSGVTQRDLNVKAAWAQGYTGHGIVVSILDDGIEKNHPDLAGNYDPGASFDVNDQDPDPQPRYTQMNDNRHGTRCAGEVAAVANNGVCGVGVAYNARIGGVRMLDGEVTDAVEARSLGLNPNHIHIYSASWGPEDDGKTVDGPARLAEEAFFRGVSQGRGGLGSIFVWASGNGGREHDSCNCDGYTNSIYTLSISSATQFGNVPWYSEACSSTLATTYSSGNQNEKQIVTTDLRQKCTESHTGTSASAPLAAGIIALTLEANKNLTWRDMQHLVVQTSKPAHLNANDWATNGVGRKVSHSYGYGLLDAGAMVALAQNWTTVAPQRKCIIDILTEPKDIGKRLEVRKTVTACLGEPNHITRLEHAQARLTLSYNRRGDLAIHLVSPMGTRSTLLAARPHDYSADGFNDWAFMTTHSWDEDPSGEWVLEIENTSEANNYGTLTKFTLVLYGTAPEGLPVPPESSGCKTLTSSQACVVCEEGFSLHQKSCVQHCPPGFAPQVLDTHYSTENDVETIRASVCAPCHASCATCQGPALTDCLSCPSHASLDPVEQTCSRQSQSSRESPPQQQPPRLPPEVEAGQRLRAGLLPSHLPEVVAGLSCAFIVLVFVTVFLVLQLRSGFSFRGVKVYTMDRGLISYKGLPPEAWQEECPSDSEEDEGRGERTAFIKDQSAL

Row | Substance | activity on furin (furin [1]) | inhibitory effect on SARS-CoV-2 pseudoviral cell-entry [2] | IFNγ-mediated microglial activation (inflammation) [3] | inhibitory effect on SARS-CoV-2 spike mediated cell fusion [4] | cathepsin B protease activity (cathepsin B) | cathepsin L protease activity (cathepsin L) | trypsin protease activity (trypsin) | furin protease activity (furin [5]) | PC1 protease activity (PC1) | matriptase protease activity (matriptase) | TMPRSS2 protease activity (TMPRSS2) | elastase protease activity [6] | IFNγ-mediated microglial activation (inflammation) ([3]; listed as recombinant AAT) | MERS-CoV pseudovirus entry [7]
1 | Alpha1-antitrypsin Portland | strong and selective activity |  |  |  |  |  |  |  |  |  |  |  |  | 
2 | plasma derived AAT |  | up to 25% | Effect is observed |  |  |  |  |  |  |  |  |  |  | 
3 | rhAAT |  |  | reduces inflammation | more effectively than plasma derived AAT | inhibits cathepsin B protease activity | inhibits cathepsin L protease activity | inhibits trypsin protease activity | inhibits furin protease activity | inhibits PC1 protease activity | inhibits matriptase protease activity | inhibits TMPRSS2 protease activity | inhibits elastase protease activity | Effect is observed | inhibits viral entry of several viruses
